Test results taken from patent publication US20150353911.

Target: FVII-186, P08709
Sequence (P08709 whole entry, looked up): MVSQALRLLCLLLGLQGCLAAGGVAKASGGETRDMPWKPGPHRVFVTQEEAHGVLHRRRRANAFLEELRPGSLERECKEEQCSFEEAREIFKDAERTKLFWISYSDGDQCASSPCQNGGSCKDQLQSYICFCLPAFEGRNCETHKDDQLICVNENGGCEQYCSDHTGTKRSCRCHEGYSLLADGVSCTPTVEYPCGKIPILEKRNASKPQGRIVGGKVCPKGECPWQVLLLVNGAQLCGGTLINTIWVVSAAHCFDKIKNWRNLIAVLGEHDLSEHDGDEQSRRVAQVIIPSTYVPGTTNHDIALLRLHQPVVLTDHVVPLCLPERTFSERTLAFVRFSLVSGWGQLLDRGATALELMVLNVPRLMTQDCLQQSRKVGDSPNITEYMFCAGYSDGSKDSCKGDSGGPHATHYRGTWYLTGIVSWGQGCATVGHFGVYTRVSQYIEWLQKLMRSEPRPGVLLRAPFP

B1: SUMO protease (Invitrogen Cat. No. 12588-018) (protein)
chain: LVPELNEKDDDQVQKALASRENTQLMNRDNIEITVRDFKTLAPRRWLNDTIIEFFMKYIEKSTPNTVAFNSFFYTNLSERGYQGVRRWMKRKKTQIDKLDKIFTPINLNQSHWALGIIDLKKKTIGYVDSLSNGPNAMSFAILTDLQKYVMEESKHTIGEDFDLIHLDCPQQPNGYDCGIYVCMNTLYGSADAPLDFDYKDAIRMRRFIAHLILTDALK
With B1 the “cleavage of SUMO from FVII-186 (reducing SDS-PAGE)” value was “showed almost complete conversion of FVII-186 to the desired FVIIHC”.
